Source: patent US20060029546A1, “Materials and methods for identifying anti-schizophrenic agents” (deCODE Genetics, Inc., priority 2004, published 2006)

Target: ErbB4 (full-length, expressed in mammalian cells) (human) (UniProt Q15303)
Test: cell-based or functional assay

Sequence of ErbB4 (full-length, expressed in mammalian cells) (human) (Q15303 26-1308 limits assumed): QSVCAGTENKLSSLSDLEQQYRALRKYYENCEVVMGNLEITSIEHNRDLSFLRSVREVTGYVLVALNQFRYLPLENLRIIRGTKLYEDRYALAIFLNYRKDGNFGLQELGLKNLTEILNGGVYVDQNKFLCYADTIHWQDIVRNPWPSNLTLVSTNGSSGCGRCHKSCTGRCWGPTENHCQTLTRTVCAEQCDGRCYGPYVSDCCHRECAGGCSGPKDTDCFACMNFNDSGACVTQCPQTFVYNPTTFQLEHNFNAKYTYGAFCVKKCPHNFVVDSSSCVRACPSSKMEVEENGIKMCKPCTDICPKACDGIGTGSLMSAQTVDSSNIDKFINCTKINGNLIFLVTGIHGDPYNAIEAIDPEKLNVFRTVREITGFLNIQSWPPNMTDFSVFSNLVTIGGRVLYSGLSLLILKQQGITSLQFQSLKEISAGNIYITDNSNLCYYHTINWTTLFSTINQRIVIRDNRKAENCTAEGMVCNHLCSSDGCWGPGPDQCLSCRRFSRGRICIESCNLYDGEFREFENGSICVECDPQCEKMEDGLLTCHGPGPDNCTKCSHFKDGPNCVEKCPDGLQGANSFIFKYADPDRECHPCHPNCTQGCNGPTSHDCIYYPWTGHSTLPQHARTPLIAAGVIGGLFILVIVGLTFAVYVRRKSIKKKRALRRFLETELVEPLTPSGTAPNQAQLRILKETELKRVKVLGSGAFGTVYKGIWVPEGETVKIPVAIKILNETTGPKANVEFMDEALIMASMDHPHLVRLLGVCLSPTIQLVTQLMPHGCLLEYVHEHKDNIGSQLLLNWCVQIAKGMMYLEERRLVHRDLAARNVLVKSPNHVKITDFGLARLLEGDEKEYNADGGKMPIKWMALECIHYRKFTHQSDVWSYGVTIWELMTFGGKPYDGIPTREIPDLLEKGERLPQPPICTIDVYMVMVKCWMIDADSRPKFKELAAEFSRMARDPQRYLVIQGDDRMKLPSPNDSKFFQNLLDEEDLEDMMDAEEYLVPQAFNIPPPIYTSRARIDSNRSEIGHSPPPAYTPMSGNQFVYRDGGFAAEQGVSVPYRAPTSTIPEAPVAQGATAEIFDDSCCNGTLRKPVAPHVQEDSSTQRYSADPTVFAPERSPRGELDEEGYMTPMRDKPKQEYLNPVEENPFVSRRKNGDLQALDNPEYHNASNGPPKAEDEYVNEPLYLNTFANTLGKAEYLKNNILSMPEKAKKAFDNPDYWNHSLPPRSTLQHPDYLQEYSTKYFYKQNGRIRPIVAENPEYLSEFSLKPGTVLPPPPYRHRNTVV

NRG1 EC50, luciferase reporter gene under a promoter containing a serum response element (SRE), CHO-K1 cells expressing ErbB4 with or without Fyn: 1 nM
Substance: NRG1 (recombinant human HRG-αEGF domain; R&D Systems) (from UniProt Q02297 177-241) (ligand)
